According to article PMC5512693, “Bacterial RadA is a DnaB-type helicase interacting with RecA to promote bidirectional D-loop extension” (Nature Communications, 2017):

How the values were obtained:
RadA (RadAFL) = system: T1, RadA (RadAFL); assay: coupled spectrophotometric ATPase assay (pyruvate kinase / lactate dehydrogenase, NADH at […] nm), Michaelis-Menten fit; assay type: biochemical, Streptococcus pneumoniae; details: ATP 0-2 mM, 600 nM RadA, 2 uM nt phiX174 ssDNA, 4 mM Mg(OAc)2, pH 7.5, 37 C
T1 construct: full length, 453 residues, hexamer; recombinant in E. coli; ATPase work with native untagged protein (pET21d); crystal with SeMet RadAFL (pET-radA or StrepII-tagged IBA13-radA), C4 domain (1-35) unresolved

[1] = target: P domain of pneumococcal RadA (RadAP) (S. pneumoniae); assay: SEC-MALS; samples at 2 mg/ml injected on Superdex200 Increase coupled to MALS and refractive index detection, 0.4 ml/min, 298 K; hexamer independent of nucleotide and Mg2+
[2] = target: RadA K101A, purified without tag (S. pneumoniae); assay: SEC; gel filtration of purified untagged RadA proteins on Superdex 200 increase 10/300 in 25 mM Tris pH 8, 200 mM NaCl, 20% glycerol; calibrated with 43, 158 and 440 kDa standards
[3] = target: RadA K251A, purified without tag (S. pneumoniae); assay: as above
[4] = target: RadA R253A, purified without tag (S. pneumoniae); assay: as above
[5] = target: full-length pneumococcal RadA (RadAFL), preparation for structural analysis (S. pneumoniae); assay: SEC-MALS; samples at 2 mg/ml injected on Superdex200 Increase coupled to MALS and refractive index detection, 0.4 ml/min, 298 K; hexamer independent of nucleotide and Mg2+

Nc1ncnc2c1ncn2[C@@H]1O[C@H](COP(=O)(O)OP(=O)(O)OP(=O)(O)O)[C@@H](O)[C@H]1O [ATP]
Km (RadA (RadAFL)): 150 µM

P domain of pneumococcal RadA (RadAP) (domain or fragment)
stoichiometry N [1]: 6

RadA K101A, purified without tag (enzyme)
stoichiometry N [2]: 6

RadA K251A, purified without tag (enzyme)
stoichiometry N [3]: 6

RadA R253A, purified without tag (enzyme)
stoichiometry N [4]: 6

full-length pneumococcal RadA (RadAFL), preparation for structural analysis (enzyme)
stoichiometry N [5]: 6
